pEC50: −log10 of the molar value. Read-outs that look alike come from different tables or passages of the source. Numbered stars: 1 amine (or outer) side, 2 acyl side, 3 side chain; on linkers, the order of the positions; unused ones are H or OH. Bridge positions count the residues as written; N and C are the ends. Square brackets hold non-standard residues; d marks the D form. Triazole bridges read from a SMILES are 1,4-linked. Side chains are listed from the residue outwards. Peptide text beside a SMILES is read from it. * marks the point of attachment. DOTA = O=C(O)CN1CCN(CC(=O)O)CCN(CC(=O)*)CCN(CC(=O)O)CC1; Pteroyl = Nc1nc2ncc(CNc3ccc(C(=O)*)cc3)nc2c(=O)[nH]1; Biotin = O=C1N[C@H]2[C@H](CS[C@H]2CCCCC(=O)*)N1; PEG10 = NCCOCCOCCOCCOCCOCCOCCOCCOCCOCCOCCC(=O)O; Butanoyl(4-(4-MePh)) = Cc1ccc(CCCC(=O)*)cc1; Lys(N3) = [N-]=[N+]=NCCCC[C@H](N)C(=O)O; γGlu = O=C(O)[C@H](CCC(=O)[*:2])N[*:1]; AEEEA = NCCOCCOCCOCC(=O)O; Pra = C#CC[C@H](N)C(=O)O
What was measured:
[1] = molecular target: T1, FOLR1 (Homo sapiens, UniProt P15328); experiment: ELISA assay of FOLR1 binding
T1 construct: His; purchased SinoBiological 11241-H08H
T1 sequence (P15328 25-234): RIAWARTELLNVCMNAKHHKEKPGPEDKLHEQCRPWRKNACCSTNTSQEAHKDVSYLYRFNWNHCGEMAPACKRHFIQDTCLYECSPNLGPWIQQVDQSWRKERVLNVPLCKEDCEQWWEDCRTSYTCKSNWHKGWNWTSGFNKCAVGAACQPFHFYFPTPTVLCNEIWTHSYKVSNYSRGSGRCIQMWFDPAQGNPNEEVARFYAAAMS
Description: FIG. 5 is a diagram of ELISA assay of FOLR1 binding of heterobiligands.
Nonclinical studies were first conducted with Folate-hshta-PEG10-PEG10-K(Biotin), where Folate-hshta is the targeting heterobiligand, PEG10 is a deca(ethylene glycol) linker, and K(Biotin) is the detection label.

[2] = system: OVCAR3 xenografts; experiment: 177Lu FOLR1 radioligand therapy in OVCAR3 xenograft model; type: in vivo, mouse; details: for body weight change: single dose
Experimental: Water and food were provided ad libitum. […] Tumor growth was monitored by caliper measurements.
OVCAR3 tumor bearing mice were used to study FOLR1-directed radioligand therapy (RLT) for treatment of ovarian cancer. Animals were administered a single dose of heterobiligand (vehicle control) or 111, 37, 18.5, 9.25, or 3.7 MBq [^177Lu]DOTA-labeled heterobiligand. Mice received the dose intravenously (i.v.) via the tail vein. To monitor the effect of the RLT, tumor size measurements were taken twice weekly and body weights were measured.
The engraftment was allowed to expand until palpable tumor sizes ranging in size from 218-384 mm^3 were detected. […] These observed effects were consistant with radiation overdosing. […] The best response was observed using 9.25 MBq Lu-177 Heterobiligand (compound #2809).
Single dose treatments at 18.5 MBq/nmol specific activity. OVCAR3 mouse model was used. 10^7 cell tumors were implanted in the mice one month before administration of ^177Lu-#6305. Five mice each were administered Cold #6305, 9.25 MBq Lu177-#6305, and 14.8 MBq Lu177-#6305, and two mice were administered 29.6 MBq Lu177-#6305. Tumor growth and body weight were then monitored.
Female NSG mice were implanted subcutaneously with OVCAR3 cells. Once tumors reached volumes of 200 mm^3, the animals were treated with 177-Lu 7327. Three treatment arms of 9.25 MBq, 14.8 MBq, and 29.6 MBq were studied.
Female NSG mice were implanted subcutaneously with human OVCAR3 (FOLR+) ovarian cancer cells. Once tumors reached volumes of 200 mm^3, the animals were treated with Indi ^177Lu-7327. One treatment arm of 74 MBq and a control group of 0 MBq were studied (FIGS. 41 and 38A). […] The second dose was administered 21 days following the first dose. Statistically significant differential between treated and control was reached 24 days post-injection (three days following the second dose) for the 74 MBq arm. P values (* for p≤0.05, ** for p≤0.01) were determined by ordinary one-way ANOVA with Tukey's multiple comparisons test.

[3] = Maximum tolerated dose / tolerability study
Experimental: Animals were monitored for signs of toxicity and weighed twice weekly. […] The second and third doses were administered 21 days following the previous dose.
Two separate MTD experiments were undertaken. […] A second experiment interrogated lower doses.
Mouse body weight and behavior were monitored. […] The second and third doses were administered 21 days following the previous dose.

[4] = Gamma counting of tissue radioactivity; type: in vivo, mouse; details: for kidney radioactivity / liver radioactivity / tumor radioactivity: Day 28 post-injection
Description: 7 days after Lu177-#6305 injection, the 29.6 MBq group lost 20% body weight. These mice were sacrificed. Tissues and plasma were collected for evaluation of radioactivity by gamma counting. The toxicity may have resulted from its accumulation in the kidneys and liver (FIG. 28). At study endpoint (Day 28 post-injection), plasma, tumors, kidneys, lungs, hearts, livers, and muscles from 9.25 MBq and 14.8 MBq treatment groups were collected for evaluation of radioactivity by gamma counting (FIG. 29).

[5] = albumin binder / DOTA tagged biotin-labeled heterobiligands, read-out: EC50
[6] = 29.6 MBq group, Day 7 post-injection

Work on `C[C@H](O)[C@H]1NC(=O)[C@@H](Cc2c[nH]cn2)NC(=O)[C@@H](CO)NC(=O)[C@@H](Cc2c[nH]cn2)NC(=O)[C@@H](NC(=O)CC[C@H](NC(=O)c2ccc(NCc3cnc4nc(N)[nH]c(=O)c4n3)cc2)C(=O)O)Cc2cn(nn2)CCCC[C@@H](C(=O)NCCOCCOCCOCC(=O)N[C@@H](CCCCNC(=O)CN2CCN(CC(=O)O)CCN(CC(=O)O)CCN(CC(=O)O)CC2)C(=O)NCCOCCOCCOCCOCCOCCOCCOCCOCCOCCOCCC(=O)NCCOCCOCCOCCOCCOCCOCCOCCOCCOCCOCCC(=O)N[C@@H](CCCCNC(=O)CCCC[C@@H]2SC[C@@H]3NC(=O)N[C@@H]32)C(N)=O)NC(=O)[C@@H](C)NC1=O` [Folate-hshta-DOTA] ({Pteroyl-γGlu}-[Pra][dH][dS][dH][dT][dA][Lys(N3)][AEEEA]K(DOTA)[PEG10][PEG10]K(Biotin)-NH2; triazole 1-7) yielded a pEC50 [1, 5] of 10.01.

For `Cc1ccc(CCCC(=O)NCCCC[C@H](NC(=O)COCCOCCOCCNC(=O)[C@@H]2CCCCn3cc(nn3)C[C@H](NC(=O)CC[C@H](NC(=O)c3ccc(NCc4cnc5nc(N)[nH]c(=O)c5n4)cc3)C(=O)O)C(=O)N[C@H](Cc3c[nH]cn3)C(=O)N[C@H](CO)C(=O)N[C@H](Cc3c[nH]cn3)C(=O)N[C@H]([C@H](C)O)C(=O)N[C@H](C)C(=O)N2)C(=O)NCCOCCOCCOCCOCCOCCOCCOCCOCCOCCOCCC(=O)NCCOCCOCCOCCOCCOCCOCCOCCOCCOCCOCCC(=O)N[C@@H](CCCCNC(=O)CCCC[C@@H]2SC[C@@H]3NC(=O)N[C@@H]32)C(N)=O)cc1` [Folate-hshta-MPBA] ({Pteroyl-γGlu}-[Pra][dH][dS][dH][dT][dA][Lys(N3)][AEEEA]K(Butanoyl(4-(4-MePh)))[PEG10][PEG10]K(Biotin)-NH2; triazole 1-7), the pEC50 [1, 5] was 9.96.

With `C[C@H](O)[C@H]1NC(=O)[C@@H](Cc2cnc[nH]2)NC(=O)[C@@H](CO)NC(=O)[C@@H](Cc2cnc[nH]2)NC(=O)[C@@H](NC(=O)CC[C@H](NC(=O)c2ccc(NCc3cnc4nc(N)[nH]c(=O)c4n3)cc2)C(=O)O)Cc2cn(nn2)CCCC[C@@H](C(=O)NCC(=O)N[C@@H](Cc2ccccc2)C(=O)N[C@@H](CCCCNC(=O)CN2CCN(CC(=O)O)CCN(CC(=O)O)CCN(CC(=O)O)CC2)C(=O)O)NC(=O)[C@@H](C)NC1=O` [Indi ^177Lu-7327, Folate-hshta-G-F-K(^177Lu-DOTA)-OH, metal not drawn] ({Pteroyl-γGlu}-[Pra][dH][dS][dH][dT][dA][Lys(N3)]GFK(DOTA)-OH; triazole 1-7) the “loss of body weight” value ([2]; 29.6 MBq, after second dose) was 5-10%, the body weight ([2]; highest dose (29.6 MBq), after second dose) was “modest loss of body weight” and the “body weights of treated mice” value ([2]; mouse, in vivo) was “normal body weights (+/−10%)”. The “tolerability of first dose” value ([2]; mouse, in vivo) was “well tolerated” and the “radioactive dose tolerated, three treatments” value ([3]; healthy, non-tumor bearing female NSG mice) was “up to 111 MBq”.

Work on `C[C@H](O)[C@H]1NC(=O)[C@@H](Cc2ccc(O)cc2)NC(=O)[C@@H](CCCNC(=N)N)NC(=O)[C@@H](CCC(=O)O)NC(=O)[C@@H](CC(=O)O)NC(=O)[C@@H](NC(=O)[C@H](CCCCNC(=O)COCCOCCOCCNC(=O)CC[C@H](NC(=O)c2ccc(NCc3cnc4nc(N)[nH]c(=O)c4n3)cc2)C(=O)O)NC(=O)CCOCCOCCOCCOCCOCCOCCOCCOCCOCCOCCNC(=O)CCOCCOCCOCCOCCOCCOCCOCCOCCOCCOCCNC(=O)CCCC[C@@H]2SC[C@@H]3NC(=O)N[C@@H]32)Cc2cn(nn2)CCCC[C@@H](C(N)=O)NC1=O` [Lys (PEG3 -Folate)-deryt] ({Biotin-PEG10-PEG10}-K([AEEEA-γGlu-Pteroyl])[Pra][dD][dE][dR][dY][dT][Lys(N3)]-NH2; triazole 2-8) yielded a pEC50 ([1]; EC50, deryt heterobiligands, ELISA) of 9.80.

With `Cc1ccc(CCCC(=O)NCCCC[C@H](NC(=O)[C@@H]2CCCCn3cc(nn3)C[C@H](NC(=O)CC[C@H](NC(=O)c3ccc(NCc4cnc5nc(N)[nH]c(=O)c5n4)cc3)C(=O)O)C(=O)N[C@H](Cc3c[nH]cn3)C(=O)N[C@H](CO)C(=O)N[C@H](Cc3c[nH]cn3)C(=O)N[C@H]([C@H](C)O)C(=O)N[C@H](C)C(=O)N2)C(=O)NCC(=O)N[C@@H](Cc2ccccc2)C(=O)N[C@@H](CCCCNC(=O)CN2CCN(CC(=O)O)CCN(CC(=O)O)CCN(CC(=O)O)CC2)C(=O)O)cc1` [^177Lu-#6305, metal not drawn] ({Pteroyl-γGlu}-[Pra][dH][dS][dH][dT][dA][Lys(N3)]K(Butanoyl(4-(4-MePh)))GFK(DOTA)-OH; triazole 1-7) the body weight change ([2]; 9.25 MBq and 14.8 MBq) was “No significant body weight change”, the body weight loss ([2]; 29.6 MBq, 7 days after injection) was 20% and the body weight change ([2]; 29.6 MBq) was “substantial body weight decrease”. For the same compound, the kidney radioactivity ([4]; 9.25 MBq group) was 414 CPM/g, the liver radioactivity ([4]; 9.25 MBq group) was 685 CPM/g and the tumor radioactivity ([4]; 9.25 MBq group) was 33 CPM/g. For the same compound, the liver/kidney ratio ([4]; 14.8 MBq group on Day 28) was 1.94, the kidney radioactivity ([4]; 14.8 MBq group) was 653 CPM/g and the liver radioactivity ([4]; 14.8 MBq group) was 1,264 CPM/g. The tumor radioactivity ([4]; 14.8 MBq group) was 60 CPM/g, the liver/kidney ratio ([4]; 29.6 MBq group on Day 7) was 0.27 and the “radioactivity in the kidney” value [4, 6] was 394,834 CPM/g. For the same compound, the “radioactivity in the liver” value [4, 6] was 107,374 CPM/g, the “radioactivity in the tumor” value [4, 6] was 42,674 CPM/g and the tissue to tissue ratio at 672 h ([4]; mouse, tumor and kidney, total radioactivity, 14.8 MBq group, Day 28) was 0.093. The tissue to tissue ratio at 168 h ([4]; mouse, tumor and kidney, total radioactivity, 29.6 MBq group, Day 7) was 0.108, the body weight ([3]; doses of 29.6, 37, 111 and 185 MBq, first dose) was “weight loss after the first dose” and the “tolerability of second dose” value ([3]; second dose 7 days after the first (29.6-185 MBq)) was “not tolerated”. For the same compound, the “tolerability of second dose” value ([3]; second dose administered 21 days (14.8-22.2 MBq)) was “not tolerated” and the body weight ([3]; single dose of 14.8, 18.5 and 22.2 MBq) was “only minimal loss in body weight”.
